The results in this text go back to patent publication US20210395370A1 (AstraZeneca / MedImmune, published 2021).

The target in assay [1] is T1, CD22 receptor on the Daudi cell line (human, UniProt P20273 20-847).
T1 sequence (looked up): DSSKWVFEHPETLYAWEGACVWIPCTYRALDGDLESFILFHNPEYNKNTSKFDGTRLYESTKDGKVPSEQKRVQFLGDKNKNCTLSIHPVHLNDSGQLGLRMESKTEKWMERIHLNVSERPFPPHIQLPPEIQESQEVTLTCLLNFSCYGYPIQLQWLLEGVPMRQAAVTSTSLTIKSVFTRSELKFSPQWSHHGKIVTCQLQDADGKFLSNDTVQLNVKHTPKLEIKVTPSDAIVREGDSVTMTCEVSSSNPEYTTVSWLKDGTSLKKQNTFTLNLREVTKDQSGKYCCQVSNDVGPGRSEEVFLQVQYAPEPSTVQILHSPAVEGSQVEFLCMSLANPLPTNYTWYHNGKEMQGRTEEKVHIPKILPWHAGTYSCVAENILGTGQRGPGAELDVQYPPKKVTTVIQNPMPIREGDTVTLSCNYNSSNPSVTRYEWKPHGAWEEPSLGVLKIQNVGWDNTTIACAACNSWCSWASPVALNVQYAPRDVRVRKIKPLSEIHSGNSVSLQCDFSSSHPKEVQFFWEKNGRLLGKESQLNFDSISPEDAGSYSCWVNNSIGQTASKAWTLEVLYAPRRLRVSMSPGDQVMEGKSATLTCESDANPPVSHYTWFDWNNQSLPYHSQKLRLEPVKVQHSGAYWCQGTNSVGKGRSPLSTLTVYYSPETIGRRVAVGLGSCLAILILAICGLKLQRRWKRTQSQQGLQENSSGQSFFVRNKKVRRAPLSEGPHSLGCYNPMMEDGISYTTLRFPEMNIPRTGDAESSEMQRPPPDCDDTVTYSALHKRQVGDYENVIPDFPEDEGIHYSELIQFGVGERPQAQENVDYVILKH
The assay is described as follows: cell-based or functional assay.

The target in assay [2] is T1, CD22 receptor on the Daudi cell line. The assay is described as follows: cell-based or functional assay. The source holds these as a separate data set.

B1: CAT-8015 (other)
VH: MEVQLVESGGGLVKPGGSLKLSCAASGFAFSIYDMSWVRQTPEKCLEWVAYISSGGGTTYYPDTVKGRFTISRDNAKNTLYLQMSSLKSEDTAMYYCARHSGYGTHWGVLFAYWGQGTLVTVSAKASGGPEGGSLAALTAHQACHLPLETFTRHRQPRGWEQLEQCGYPVQRLVALYLAARLSWNQVDQVIRNALASPGSGGDLGEAIREQPEQARLALTLAAAESERFVRQGTGNDEAGAANGPADSGDALLERNYPTGAEFLGDGGDVSFSTRGTQNWTVERLLQAHRQLEERGYVFVGYHGTFLEAAQSIVFGGVRARSQDLDAIWRGFYIAGDPALAYGYAQDQEPDARGRIRNGALLRVYVPRSSLPGFYRTSLTLAAPEAAGEVERLIGHPLPLRLDAITGPEEEGGRLETILGWPLAERTVVIPSAIPTDPRNVGGDLDPSSIPDKEQAISALPDYASQPGKPPREDLK
VL: MDIQMTQTTSSLSASLGDRVTISCRASQDISNYLNWYQQKPDGTVKLLIYYTSILHSGVPSRFSGSGSGTDYSLTISNLEQEDFATYFCQQGNTLPWTFGCGTKLEIK
modifications: Asn-358 partially deamidated to Asp-358 and iso-Asp-358 in the preparations tested (extent differs by pool)
In the case of B1, in assay [1], the “Relative Potency (%) in apoptosis bioassay (Caspase-Glo 3/7, Daudi cells; EC50 of Reference Standard / EC50 of test sample); sample: QHP Eluate Pool, bench scale (16.5% pre-peak)” value is 80% and the “Relative Potency (%) in apoptosis bioassay (Caspase-Glo 3/7, Daudi cells; EC50 of Reference Standard / EC50 of test sample); sample: QHP Load Pool, bench scale (53.8% pre-peak)” value turned out to be 52%. In addition, in assay [2], the “Relative Potency (%) in apoptosis bioassay (Caspase-Glo 3/7, Daudi cells; EC50 of Reference Standard / EC50 of test sample); sample: QHP Eluate Pool, large scale (17% pre-peak)” value is 75% and the “Relative Potency (%) in apoptosis bioassay (Caspase-Glo 3/7, Daudi cells; EC50 of Reference Standard / EC50 of test sample); sample: QHP Load Pool, large scale (50.3% pre-peak)” value was 51%.
